One experiment concerns the target T1, BAP (1-28) (Homo sapiens, UniProt P05067).
T1 construct: residues 1-28 of BAP or residues 597-624 of BAPP; purchased Bachem Inc., Torrance, Calif; host or cells: synthetic peptide
As to the kind of experiment: Solid phase binding assay, Scatchard analysis of 125I-BAP (1-28) binding to high Mr HSPG. The procedure: Nitrocellulose coated wells were incubated overnight at room temperature with 100 μl of TBS containing 1.5 μg (with 0.28 μg binding to the well) of high Mr HSPG. Wells were blocked overnight at room temperature with 200 μl of 5% non-fat dried milk. After blocking, wells were rinsed 3 times with 200 μl of TBS. Various quantities of ^125I-BAP (1-28) (specific activity=6,683 cpm/pm) diluted in 100 μl of TBS/0.05% Tween 20 was added in triplicate to wells and incubated for 2.5 hours at room temperature on an orbital shaker. At the end of the incubation period, free ^125I-BAP was removed from each well and transferred to scintillation vials for counting. In addition, each well was washed 6 times with 200 μl of TBS/0.05% Tween 20, and the wash was added to each of the same scintillation vials described above, to determine the total “free” 125I-BAP fraction for each well. Bound ^125-BAP was extracted from wells by incubation with 100 μl of 1N NaOH at room temperature for 1 hour, and quantitated by liquid scintillation counting. Recovery of ^125I-BAP as free and bound radioactivity exceeded 90%. […] Bars indicate standard error of the mean.
^125I-HSPG (specific activity=1,104 cpm/ug) isolated from EC culture media was used to determine the amount of HSPG which bound to microtiter wells. Polyvinyl microtiter wells were coated with 100 μl of nitrocellulose solution (Schleicher and Schuell) (10 cm^2 of BA85 nitrocellulose in 10 ml of methanol) and allowed to dry at room temperature for 4 hours. Wells were coated overnight at room temperature with unlabeled HSPG to give 0.12 μg or 0.28 μg of bound-HSPG per well, and blocked overnight at room temperature with 200 μl of 5% non-fat dried milk (Carnation Co., Los Angeles, Calif.). Various quantities of 125I-BAP (residues 1-28) (specific activity=6,683 cpm/pm) diluted in 100 μl of TBS/0.05% Tween 20 were added in triplicate to wells and incubated for 2.5 hours at room temperature on an orbital shaker. At the end of the incubation. period, free ^125I-BAP was then removed with 6 washes of TBS/0.05% Tween 20. Bound ^125I-BAP was extracted from wells by incubation with 100 μl of 1N NaOH at room temperature for 1 hour, and “bound” versus “free” radioactivity was quantitated by liquid scintillation counting. Recovery of ^125I-BAP as free and bound radioactivity exceeded 90%. A set of controls using 5% BSA-coated wells was also included in all experiments.
To quantitate the interaction between the high Mr HSPG and BAP (1-28), 0.12 μg or 0.28 μg of the HSPG (isolated from the culture media of ECs; see FIG. 9B, lane 1) were immobilized on nitrocellulose coated wells and incubated with increasing concentrations of ^125I-BAP.

Another experiment addresses T2, BAP (residues 1-28) (Homo sapiens, UniProt P05067).
T2 construct: residues 1-28 of BAP or residues 597-624 of BAPP; purchased Bachem Inc., Torrance, Calif; host or cells: synthetic peptide
As to the kind of experiment: Affinity column chromatography of labeled proteoglycans on BAP (1-28) Affi-gel 10 column. Format: binding. On the procedure:
Approximately 500,000 dpm of ^35S-sulfate labeled PGs isolated from the culture media of ECs were applied to Affi-gel 10 affinity columns containing approximately 0.45 mg of 1) residues 1-28 of BAP, 2) residues 410-429, a region of BAPP present in the extracellular domain, or 3) bovine serum albumin. The labeled PGs were left on the column for 1 hour, after which non-bound radiolabelled PGs were eluted with 25 ml (50 0.5 ml fractions) of TBS+0.1% TX-100 and collected on a fraction collector. Bound PGs were then eluted from the column with 15 mls of 4M MgCl2 in TBS+0.1% TX-100.
0.5 mg or 1.0 mg of ligands consisting of 1) BAP (1-28) (Bachem Inc., Torrance, Calif.), 2) a peptide corresponding to residues 410-429 of the BAPP (gift of Dr. Dennis Selkoe, Boston, U.S.A.) or 3) bovine serum albumin (BSA fraction V, Boehringer, Mannheim Biochemical) were dissolved initially in 400 μl of double distilled water to which was added an equal volume of 0.2 M HEPES buffer (pH 7.5) containing 160 mM calcium chloride. The ligand solutions were added to 0.8-1.0 ml of Affi-gel 10 (Biorad, Richmond, Calif.) and coupling was allowed to proceed for 4 hours at 4° C., after which 1/10 volume of IM ethanolamine (pH 8.0) was added and incubation continued for an additional 1-2 hours to block remaining unreacted ester groups. Gel coupled ligand was then transferred to Biorad Econo-columns and washed with TBS in 0.1% Triton-X 100. To assess the amount of bound ligand, soluble (nonbound) protein remaining in the wash buffer was assayed. The affinity columns coupled approximately 90% of ligand initially applied (i.e. 0.45 mg or 0.90 mg).
^35S-sulfate labeled PGs isolated from the culture media (360,000 dpm) of ECs and SMCs were applied to Affi-gel 10 columns containing 1) BAP (residues 1-28), 2) BAPP (residues 410-429) or 3) Bovine serum albumin. The labeled PGs were allowed to interact with the affinity gel for 1 hour (preliminary experiments indicated maximum binding efficiency at 1 hour) and non-bound radiolabelled PGs were eluted with 25 ml of TBS+0.1% Triton X-100 (TBS-TX 100). Bound PGs were eluted with either a single-step gradient using 15 mls of 4M MgCl2 in TBS-TX 100 or a linear gradient of 0 to 4M MgCl2 in TBS-TX 100. In some experiments, columns were further eluted with 15 ml of 8M urea in 50 mM Tris-HCl (pH 7.5), with 0.5% Triton X-100 and 3M NaCl. The radioactivity per fraction was determined by scintillation counting. Most experiments were repeated a minimum of three times. Recoveries of applied radioactivity from the affinity columns ranged from 80-95%.

“Also recorded” adds a separate entry of the source. Like-named read-outs stand apart in the source and are kept apart here.

T2 sequence (P05067 672-699 limits assumed): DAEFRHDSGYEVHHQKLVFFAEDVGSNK

In general, Kd refers to the concentration at which binding is half-saturated. On to “high Mr HSPG: ˜600-800 kDa heparan sulfate proteoglycan isolated from culture media of bovine aortic endothelial cells”, for which the Kd with BAP (1-28) (125I-BAP (1-28), Scatchard analysis, HSPG on nitrocellulose coated wells, read-out: Kd of the high affinity binding site) amounted to 0.083 nM; with BAP (1-28) (125I-BAP (1-28), Scatchard analysis, HSPG on nitrocellulose coated wells, read-out: Kd of the low affinity binding site), 42 nM; with BAP (1-28) (binding to BAP/β/A4 (1-28), read-out: Kd of the low affinity binding site (unit inferred)), 42 nM. The “moles of BAP bound by 1 mole of HSPG” value with BAP (1-28) (assuming molecular weights of 700,000 and 2,800) was ~1.8 mol. Moreover, the “binding to BAP (1-28) affinity column” value in the experiment with BAP (residues 1-28) is “strong binding; also recorded: bound tightly”; in the experiment with BAP (residues 1-28) (listed as 125I-HSPG) it was “high affinity”. Also, in the experiment with BAP (residues 1-28) (after 0 to 4M MgCl2 gradient and 4M MgCl2 wash), the “eluent that removed most bound PGs from BAP column” value turned out to be 8M urea+3M NaCl.
